Results published in patent publication US20220218790A1 (UNIVERSITY OF SHEFFIELD, published 2022).

T1: PTH receptor of the PTH responsive cell line UMR-106 (rat osteoblastic like cell line) (rat, UniProt P25961 27-591)
T1 sequence (looked up): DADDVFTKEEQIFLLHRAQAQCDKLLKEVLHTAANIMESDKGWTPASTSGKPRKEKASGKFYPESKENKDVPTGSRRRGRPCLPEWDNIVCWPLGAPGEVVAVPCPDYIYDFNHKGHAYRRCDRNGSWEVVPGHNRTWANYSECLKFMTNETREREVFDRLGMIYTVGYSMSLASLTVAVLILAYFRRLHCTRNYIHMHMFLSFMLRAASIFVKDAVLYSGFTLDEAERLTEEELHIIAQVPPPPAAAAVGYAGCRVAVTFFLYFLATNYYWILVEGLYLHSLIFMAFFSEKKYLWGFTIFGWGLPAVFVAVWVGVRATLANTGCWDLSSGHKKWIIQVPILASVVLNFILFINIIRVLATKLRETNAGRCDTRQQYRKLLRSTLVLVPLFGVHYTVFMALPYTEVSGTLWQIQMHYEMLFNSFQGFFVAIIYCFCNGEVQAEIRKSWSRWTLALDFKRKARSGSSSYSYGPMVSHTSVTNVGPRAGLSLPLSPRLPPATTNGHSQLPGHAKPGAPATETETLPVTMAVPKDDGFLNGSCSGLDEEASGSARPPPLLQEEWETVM


Target: T1, PTH receptor of the PTH responsive cell …
Assay: cell-based or functional assay

Row | Dual Luciferase Reporter Assay, fold increase of 14A2c over 14A3b at 100 nM | Dual Luciferase Reporter Assay, fold increase of 14A2c over 14A3b at 500 nM | EC50, Dual Luciferase Reporter Assay, UMR-106 cells | fold increase in cAMP levels over 14A3b, UMR-106 cells, 500 nM | fold by which PTH is more potent than this fusion (EC50, Dual Luciferase Reporter Assay) | Binder
1 | ~1.3 fold | ~1.6 fold | 579 nM | 11 fold |  | 14A2c = PTHss-pp-PTH (1-34)-(g4s)4-PTHrExt-(g4s)4-GHbp (other) SVSEIQLMHNLGKHLNSMERVEWLRKKLQDVHNFGGGGSGGGGSGGGGSGGGGSDDVMTKEEQIFLLHRAQAQCEKRLKEVLQRPASIMESDKGWTSASTSGKPRKDKASGKLYPESEEDKEAPTGSRYRGRPCLPEWDHILCWPLGAPGEVVAVPCPDYIYDFNHKGHAYRRCDRNGSWELVPGHNRTWANYSECVKFLTNETREREVFDRLGGGGSGGGGSGGGGSGGGGSFSGSEATAAILSRAPWSLQSVNPGLKTNSSKEPKFTKCRSPERETFSCHWTDEVHHGTKNLGPIQLFYTRRNTQEWTQEWKECPDYVSAGENSCYFNSSFTSIAIPYCIKLTSNGGTVDEKCFSVDEIVQPDPPIALNWTLLNVSLTGIHADIQVRWEAPRNADIQKGWMVLEYELQYKEVNETKWKMMDPILTTSVPVYSLKVDKEYEVRVRSKQRNSGNYGEFSEVLYVTLPQMSQ
2 |  |  | 896 nM |  |  | 14A3b = GHss-PTH (1-34)-(g4s)4-PTHrExt-(g4s)4-GHbp (other) SVSEIQLMHNLGKHLNSMERVEWLRKKLQDVHNFGGGGSGGGGSGGGGSGGGGSDDVMTKEEQIFLLHRAQAQCEKRLKEVLQRPASIMESDKGWTSASTSGKPRKDKASGKLYPESEEDKEAPTGSRYRGRPCLPEWDHILCWPLGAPGEVVAVPCPDYIYDFNHKGHAYRRCDRNGSWELVPGHNRTWANYSECVKFLTNETREREVFDRLGGGGSGGGGSGGGGSGGGGSFSGSEATAAILSRAPWSLQSVNPGLKTNSSKEPKFTKCRSPERETFSCHWTDEVHHGTKNLGPIQLFYTRRNTQEWTQEWKECPDYVSAGENSCYFNSSFTSIAIPYCIKLTSNGGTVDEKCFSVDEIVQPDPPIALNWTLLNVSLTGIHADIQVRWEAPRNADIQKGWMVLEYELQYKEVNETKWKMMDPILTTSVPVYSLKVDKEYEVRVRSKQRNSGNYGEFSEVLYVTLPQMSQ
3 |  |  | 153 nM |  | 4.7 fold | 14A7 = PTHss-pp-PTH(1-34)-(g4s)4-GHbp (other) SVSEIQLMHNLGKHLNSMERVEWLRKKLQDVHNFGGGGSGGGGSGGGGSGGGGSFSGSEATAAILSRAPWSLQSVNPGLKTNSSKEPKFTKCRSPERETFSCHWTDEVHHGTKNLGPIQLFYTRRNTQEWTQEWKECPDYVSAGENSCYFNSSFTSIAIPYCIKLTSNGGTVDEKCFSVDEIVQPDPPIALNWTLLNVSLTGIHADIQVRWEAPRNADIQKGWMVLEYELQYKEVNETKWKMMDPILTTSVPVYSLKVDKEYEVRVRSKQRNSGNYGEFSEVLYVTLPQMSQ
